{
  "source": "patent US20220251222A1",
  "about": "“IL-6Ralpha/IL-8R BISPECIFIC BINDING AGENTS FOR INHIBITING CANCER CELL MIGRATION” (The Johns Hopkins University, priority 2019, published 2022)",
  "key": {"IL-6Rα": {"biological_target": "T1, IL-6Rα (Homo sapiens, UniProt P08887)", "T1 construct": "expressed in transfected cells; host or cells: HEK 293T, lentiviral transduction (pCDH backbone)", "T1 sequence (P08887 20-468)": "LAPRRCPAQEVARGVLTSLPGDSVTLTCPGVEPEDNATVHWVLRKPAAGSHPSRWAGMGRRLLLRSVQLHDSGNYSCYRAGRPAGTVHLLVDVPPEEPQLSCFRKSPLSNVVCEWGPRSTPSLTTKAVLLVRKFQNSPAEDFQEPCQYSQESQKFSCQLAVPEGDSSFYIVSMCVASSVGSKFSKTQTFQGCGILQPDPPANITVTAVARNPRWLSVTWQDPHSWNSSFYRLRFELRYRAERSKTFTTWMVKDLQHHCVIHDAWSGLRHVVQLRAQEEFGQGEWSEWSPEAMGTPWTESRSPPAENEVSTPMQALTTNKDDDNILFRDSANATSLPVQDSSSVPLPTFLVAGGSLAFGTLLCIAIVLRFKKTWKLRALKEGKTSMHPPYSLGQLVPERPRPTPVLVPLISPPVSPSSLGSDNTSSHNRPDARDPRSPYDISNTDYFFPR", "assay": "Cell surface binding on IL-6Rα+/IL-8R− HEK 293T cells (flow cytometry)", "details": "2 hr at 4° C.", "from_the_text": "GeneJuice (Sigma Aldrich) was used as the transfection reagent.\nMean fluorescence intensity (MFI) of unstimulated cells was subtracted."}, "IL-8 binding to IL-8R": {"biological_target": "T2, IL-8 binding to IL-8R (Homo sapiens, UniProt P25025)", "T2 construct": "expressed in transfected cells; host or cells: HEK 293T, lentiviral transduction (IL-6Rα−/IL-8R+)", "T2 sequence (P25025 1-360)": "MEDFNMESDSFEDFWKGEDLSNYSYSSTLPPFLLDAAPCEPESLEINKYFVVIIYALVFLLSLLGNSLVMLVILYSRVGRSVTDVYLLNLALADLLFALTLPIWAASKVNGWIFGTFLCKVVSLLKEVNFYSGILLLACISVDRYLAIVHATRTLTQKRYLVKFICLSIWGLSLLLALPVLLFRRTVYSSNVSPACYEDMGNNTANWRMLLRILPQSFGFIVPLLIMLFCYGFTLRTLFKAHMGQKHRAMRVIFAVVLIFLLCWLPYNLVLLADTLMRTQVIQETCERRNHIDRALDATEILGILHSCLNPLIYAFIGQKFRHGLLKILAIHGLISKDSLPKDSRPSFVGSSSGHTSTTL", "assay": "IL-8 cell surface binding inhibition on IL-6Rα−/IL-8R+ HEK 293T cells", "details": "His-tagged IL-8 400 nM", "experimental": "Cells were then washed and incubated with 1:200 dilution of Alexa Fluor 647-conjugated streptavidin (Fisher Scientific, cat #: S21374) in PBSA for 15 min at 4° C. […] Curves were fitted to a first-order logistic model and IC50 values were calculated using GraphPad Prism data analysis software. Mean fluorescence intensity (MFI) of unstimulated cells was subtracted. […]"}},
  "data": [
    {"substance": "tocilizumab", "values": [
      {"measurement": "KD, binding to IL-6Rα on cells", "setting": "IL-6Rα", "result": "only recognized IL-6Rα^+ cells"},
      {"measurement": "IC50, competition with IL-8 binding to IL-8R", "setting": "IL-8 binding to IL-8R", "result": "did not exert any inhibitory effects"}
    ]}
  ]
}
